Our source for the Kd values is patent US20190062438A1 (CSL, published 2019).

Holding throughout (assay): SPR, steady state, Fab over captured mutant
The target of one assay is T1, shCD131 I368A (human, UniProt P32927 17-438).
T1 construct: C-terminal 6xHis
T1 sequence: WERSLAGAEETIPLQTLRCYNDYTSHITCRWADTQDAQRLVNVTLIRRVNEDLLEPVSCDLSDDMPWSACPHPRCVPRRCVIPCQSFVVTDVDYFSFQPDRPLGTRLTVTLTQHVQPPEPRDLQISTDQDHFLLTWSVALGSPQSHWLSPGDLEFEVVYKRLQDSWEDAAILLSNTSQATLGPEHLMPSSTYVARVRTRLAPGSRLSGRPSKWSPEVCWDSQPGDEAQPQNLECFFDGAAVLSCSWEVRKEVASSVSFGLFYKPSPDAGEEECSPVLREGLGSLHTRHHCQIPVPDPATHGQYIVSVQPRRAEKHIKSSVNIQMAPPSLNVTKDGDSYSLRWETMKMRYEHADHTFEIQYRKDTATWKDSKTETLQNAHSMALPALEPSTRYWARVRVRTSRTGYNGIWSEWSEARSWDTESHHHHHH
The method, then:
(§1) For some analysis purified Fab was injected over each flow cell for 3 minutes and dissociation was monitored for a further 10 minutes. Regeneration of the surface was performed after each cycle with a 40 second injection of 25 mM glycine, pH 2.0. The analysis was performed with Fabs at several concentrations between 100 and 0.31 nM, with each concentration analyzed twice and in random order. The analysis was performed at a flow rate of 30 μl/min in HBS-EP buffer (10 mM Hepes, 150 mM NaCl, 3 mM EDTA, 0.005% Tween 20, pH 7.4) at 37° C. Responses from spots 2 and 4 of each flow cell, (in which shβc was not captured, but otherwise treated identically), were subtracted from those of spots 1 and 5 respectively to produce reference subtracted data. Reference subtracted responses from a blank injection comprising buffer alone were subtracted from the resultant sensorgrams to produce double referenced data suitable for kinetic analysis. Double-referenced sensorgrams were fitted using non-linear regression to a model describing 1:1 kinetics, including a term for mass transport limitation. The Rₘₐₓ value was fitted locally to account for slight deviations in the level of sCD131 captured, with association rate (kₐ), dissociation rate (kd) and equilibrium dissociation constant (KD) fitted globally.
(§2) Mapping of the shCD131 epitope was performed by measurement of the affinity of Fabs for various alanine point mutants of shCD131 essentially as described above, with the following exceptions. Each shCD131 mutant was captured for 120 seconds at concentrations between 1 and 5 μg/ml. For kinetic analysis, purified recombinant Fabs were injected for 2 minutes, and dissociation was monitored for a further 2 minutes. […] Fab concentrations ranged from 16 μM to 3.9 nM in two-fold dilutions. The assays were conducted at 25° C. All sensorgrams were reference subtracted as described above. For determination of steady-state affinity (KD only), the response at the end of the binding phase was used to fit the data to a single-site binding model. Kinetic parameters were determined as described above.

For a further assay, the target named is T2, shCD131 S102A (human, UniProt P32927 17-438).
T2 construct: C-terminal 6xHis
T2 sequence: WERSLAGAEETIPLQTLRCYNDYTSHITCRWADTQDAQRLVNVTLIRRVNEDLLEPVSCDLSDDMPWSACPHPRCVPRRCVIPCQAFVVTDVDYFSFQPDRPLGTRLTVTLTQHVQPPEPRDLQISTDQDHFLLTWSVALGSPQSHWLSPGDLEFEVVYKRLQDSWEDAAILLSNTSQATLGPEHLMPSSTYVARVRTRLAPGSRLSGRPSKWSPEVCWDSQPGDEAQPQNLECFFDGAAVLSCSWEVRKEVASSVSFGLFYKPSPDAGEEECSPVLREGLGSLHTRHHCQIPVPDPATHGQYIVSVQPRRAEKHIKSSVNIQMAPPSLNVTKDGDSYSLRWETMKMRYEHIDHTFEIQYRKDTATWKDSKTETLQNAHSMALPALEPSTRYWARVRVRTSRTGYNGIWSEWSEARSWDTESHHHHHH
The method, then:
as §1, §2

The next assay addresses T3, shCD131 G423A (human, UniProt P32927 17-438).
T3 construct: C-terminal 6xHis
T3 sequence: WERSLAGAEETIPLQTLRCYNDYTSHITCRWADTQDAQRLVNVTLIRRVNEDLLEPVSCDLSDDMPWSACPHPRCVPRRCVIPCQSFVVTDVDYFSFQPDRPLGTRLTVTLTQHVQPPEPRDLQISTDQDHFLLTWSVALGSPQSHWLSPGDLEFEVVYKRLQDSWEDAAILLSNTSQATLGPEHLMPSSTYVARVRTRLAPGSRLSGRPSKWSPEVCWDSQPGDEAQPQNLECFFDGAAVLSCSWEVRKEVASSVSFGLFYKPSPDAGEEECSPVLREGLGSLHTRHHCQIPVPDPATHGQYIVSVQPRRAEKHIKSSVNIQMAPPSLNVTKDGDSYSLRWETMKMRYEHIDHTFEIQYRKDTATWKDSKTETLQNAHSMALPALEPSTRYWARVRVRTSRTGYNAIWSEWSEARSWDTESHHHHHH
The protocol: as §1, §2

In a further assay the target is T4, shCD131 N37A (human, UniProt P32927 17-438).
T4 construct: C-terminal 6xHis
T4 sequence: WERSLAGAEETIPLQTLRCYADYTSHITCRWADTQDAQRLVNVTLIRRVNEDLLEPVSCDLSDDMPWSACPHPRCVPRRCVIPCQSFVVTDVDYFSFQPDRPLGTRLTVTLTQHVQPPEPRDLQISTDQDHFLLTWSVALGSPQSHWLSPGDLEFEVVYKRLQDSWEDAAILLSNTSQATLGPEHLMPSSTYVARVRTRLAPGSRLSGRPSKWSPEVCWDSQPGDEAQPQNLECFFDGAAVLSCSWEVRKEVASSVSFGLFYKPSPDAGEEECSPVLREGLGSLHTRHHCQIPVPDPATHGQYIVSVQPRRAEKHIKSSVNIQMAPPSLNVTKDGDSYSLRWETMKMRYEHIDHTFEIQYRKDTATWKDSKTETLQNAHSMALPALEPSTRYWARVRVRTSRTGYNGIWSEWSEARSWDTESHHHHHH
The method, then:
as §1, §2

B1: 9A2 Fab (Fab, V domains shown)
VH: EVQLLESGGGLVQPGGSLRLSCAASGFTFSHYHMLWVRQAPGKGLEWVSSIRSSGGFTYYADSVKGRFTISRDNSKNTLYLQMNSLRAEDTAVYYCARFYDSFFDIWGQGTMVTVSS
VL: DIQMTQSPSSVSASVGDRVTITCRASQGISSWLAWYQQKPGKAPKLLIYAASSLQSGVPSRFSGSGSGTDFTLTISSLQPEDFATYYCQQANSFPITFGQGTRLEIKR
notes: also called recombinant Fab of 9A2
By Kd is commonly meant the constant that tells how readily two partners part at equilibrium. Higher therefore signals weaker binding. Regarding B1, the Kd came out at 4.77 µM in the assay with shCD131 I368A, 324 nM in the assay with shCD131 S102A, 197 nM in the assay with shCD131 G423A and 620 nM in the assay with shCD131 N37A.
